We go through two molecules from patent US20210238279A1 (Johns Hopkins, published 2021).

Numbering of substitutions follows the chain as printed.

For assay [1], the target named is T1, human ZnT4 with C-terminal FLAG tag (human, UniProt O14863 1-429).
T1 construct: Commercial HEK293 lysate (Origene), SDS-denatured on immunoblots; not shown: C-terminal FLAG octapeptide
T1 sequence (looked up): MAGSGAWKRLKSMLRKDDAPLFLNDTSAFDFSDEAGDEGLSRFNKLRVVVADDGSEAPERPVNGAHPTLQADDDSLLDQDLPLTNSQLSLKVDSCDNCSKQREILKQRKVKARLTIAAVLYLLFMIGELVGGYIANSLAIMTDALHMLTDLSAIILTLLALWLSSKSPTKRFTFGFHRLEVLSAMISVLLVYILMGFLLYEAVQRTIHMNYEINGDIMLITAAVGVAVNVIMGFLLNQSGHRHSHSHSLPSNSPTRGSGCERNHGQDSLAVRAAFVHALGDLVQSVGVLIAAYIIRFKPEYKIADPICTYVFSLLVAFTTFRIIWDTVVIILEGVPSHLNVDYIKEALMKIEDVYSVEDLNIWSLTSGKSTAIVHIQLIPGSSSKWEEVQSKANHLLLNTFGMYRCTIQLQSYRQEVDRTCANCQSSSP
In words: immunoblot of HEK293 lysates over-expressing FLAG-tagged ZnT homologs. From the text:
(§1) FIG. 7A-7D. mAb binding specificities (FIG. 7A) mAb binding to ZnT8-His immobilized to Ni-NTA plate. Bound mAb20 (red) or mAb39 (magenta) was detected by an HRP-conjugated secondary antibody. Solid lines are least-squares fits of binding datapoints to a one-component binding process. Error bars are standard errors (n=8). (FIG. 7B) SDS-denatured mouse ZnT8-His (labeled as M) and human ZnT8-His (labeled as H) on immunoblots were detected by mAb20 or mAb39 as indicated. […] (FIG. 7C) Detection of endogenous human ZnT8 in EndoC-βH cells by mAb20 or […] immunoblotting. An equal amount of EndoC-βH lysate (5 μg total protein) was loaded to each lane. (FIG. 7D) Immunoblotting of HEK lysates with or with over-expression of a ZnT homolog as indicated. An approximately equal amount of total lysate protein (5 μg) was located to each lane, probed by either mAb20, mAb39, or anti-FALG antibody as indicated. FIG. 8. HTRF response to human ZnT8, mouse ZnT8 and human ZnT3.
(§2) Immunoblotting. SDS-solubilized cell lysate of EndoC-β cells or HEK293 cells over-expressing ZnT8 was subjected to SDS-PAGE and probed with a 1:3000 mAb20 or mAb39, followed by 1:3000 anti-mouse HRP-conjugated secondary antibody (GE Healthcare cat. #NA931V). A duplicated gel was Coomassie-stained to show an equal protein loading for each lane ([…]). To compare the mAb20 or mAb39 reactivities to different ZnT homolog, we used commercial HEK293 lysates with lentivirus-mediated over-expression of ZnT1, ZnT2, ZnT3, ZnT4, ZnT7, ZnT8, ZnT10, each is tagged by a Flag tag at the C-terminus (Origene, catalog nos. LY500001, LC412033, LC423751, LC401170, LY415673, LC428544, LC406320, and LC412886). Approximately equal amounts of total protein (5 μg) was loaded to each lane, and then probed with mAb20, mAb39, or anti-FLAG antibody (Origene, catalog no. TA50011-100) as above. The expression levels of ZnT homologs varied with ZnT1 most abundantly expressed.
On the technique in general: Immunoblotting shows a protein as a band on a membrane.

For assay [2], the target named is T2, human ZnT10 with C-terminal FLAG tag (human, UniProt Q6XR72 1-485, limits assumed).
T2 construct: Commercial HEK293 lysate (Origene), SDS-denatured on immunoblots; not shown: C-terminal FLAG octapeptide
T2 sequence (looked up): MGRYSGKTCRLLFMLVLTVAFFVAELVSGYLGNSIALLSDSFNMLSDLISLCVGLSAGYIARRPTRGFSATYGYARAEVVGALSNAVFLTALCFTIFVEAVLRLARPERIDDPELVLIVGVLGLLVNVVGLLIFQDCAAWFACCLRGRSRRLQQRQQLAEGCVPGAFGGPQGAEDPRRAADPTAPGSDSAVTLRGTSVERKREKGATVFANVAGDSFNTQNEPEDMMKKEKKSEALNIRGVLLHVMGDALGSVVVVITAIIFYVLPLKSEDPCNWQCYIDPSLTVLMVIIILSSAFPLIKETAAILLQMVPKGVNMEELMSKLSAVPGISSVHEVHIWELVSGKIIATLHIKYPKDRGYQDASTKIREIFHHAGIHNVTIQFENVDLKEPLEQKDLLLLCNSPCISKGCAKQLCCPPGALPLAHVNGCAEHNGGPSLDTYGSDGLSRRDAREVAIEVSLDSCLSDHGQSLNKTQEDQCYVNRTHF
Described as above.
Excerpt: as §1, §2

B1: mAb20 (antibody, V domains shown)
VH: QIQLVQSGPELKKPGETVKISCKASGYIFTNYPMHWVKQAPGKGLKWMGWINTYSGVPTHADDFKGRFAFSLETSANSAFLQINNLKNEDTATYFCTRSRITPTGGYAMDYWGQGTSVTVSS
VL: DVVMTQTPLSLPVSLGDQASISCRSSQSLVHSNGNTYLHWYLQKPGQSPNLLISKVSNRFSGVPERFSGSGSGTDFTLKISRVEAEDLGVYFCSQNTHVPWTFGGGTKLEIKR
notes: Mouse hybridoma mAb purified on protein A/G; In some assays it was labelled with Alexa Fluor 488 or terbium cryptate; also called monoclonal antibody mAb20; anti-ZnT8 mAb20
With B1, the binding result in assay [1] and in assay [2] was “no binding” each time.

B2: mAb39 (antibody, V domains shown)
VH: QVQLQQPGAELVKPGASVKLSCKASGYSFTTYWMHWVKQRPGQGLEWVGDINPRNGRTNYNEKSKSKATLTVDISSSTVYMQVSSLTSEDSAVYYCAIWSGAMDYWGPGTSVTVSS
VL: B1 VL with A19P, R24K, S32N, N50K, S54Y, E65D, N96T, W101P
notes: Mouse hybridoma mAb purified on protein A/G; In some assays it was labelled with Alexa Fluor 555 or d2; also called monoclonal antibody mAb39; anti-ZnT8 mAb39
Turning to B2, the binding result in assay [1] and in assay [2] was “no binding” in each case.
